The values below come from patent US20110263827A1 (AbbVie / Abbott, published 2011).

What is called EC50 is the concentration giving half of the maximal effect. A high value points to a less potent agent.

B1: DVD775 (bispecific antibody)
VH: QVQLQESGPGLVKPSQTLSLTCTVSGYSISSDFAWNWIRQPPGKGLEWMGYISYSGNTRYQPSLKSRITISRDTSKNQFFLKLNSVTAADTATYYCVTAGRGFPYWGQGTLVTVSSASTKGPSVFPLAPEVQLLESGGGLVQPGGSLRLSCTASGFTFSSYAMNWVRQAPGKGLEWVSAISGSGGTTFYADSVKGRFTISRDNSRTTLYLQMNSLRAEDTAVYYCAKDLGWSDSYYYYYGMDVWGQGTTVTVSS
VL: DIQMTQSPSSMSVSVGDRVTITCHSSQDINSNIGWLQQKPGKSFKGLIYHGTNLDDGVPSRFSGSGSGTDYTLTISSLQPEDFATYYCVQYAQFPWTFGGGTKLEIKRTVAAPSVFIFPPDIQMTQFPSSLSASVGDRVTITCRASQGIRNDLGWYQQKPGKAPKRLIYAASRLHRGVPSRFSGSGSGTEFTLTISSLQPEDFATYYCLQHNSYPCSFGQGTKLEIKR
notes: DVD-Ig; HC L, LC L; variable parts only
B2: DVD805 (bispecific antibody)
VH: B1 VH
VL: DIQMTQSPSSMSVSVGDRVTITCHSSQDINSNIGWLQQKPGKSFKGLIYHGTNLDDGVPSRFSGSGSGTDYTLTISSLQPEDFATYYCVQYAQFPWTFGGGTKLEIKRTVAAPDIQMTQFPSSLSASVGDRVTITCRASQGIRNDLGWYQQKPGKAPKRLIYAASRLHRGVPSRFSGSGSGTEFTLTISSLQPEDFATYYCLQHNSYPCSFGQGTKLEIKR
notes: DVD-Ig; HC L, LC S; variable parts only
B3: DVD835 (bispecific antibody)
VH: QVQLQESGPGLVKPSQTLSLTCTVSGYSISSDFAWNWIRQPPGKGLEWMGYISYSGNTRYQPSLKSRITISRDTSKNQFFLKLNSVTAADTATYYCVTAGRGFPYWGQGTLVTVSSASTKGPEVQLLESGGGLVQPGGSLRLSCTASGFTFSSYAMNWVRQAPGKGLEWVSAISGSGGTTFYADSVKGRFTISRDNSRTTLYLQMNSLRAEDTAVYYCAKDLGWSDSYYYYYGMDVWGQGTTVTVSS
VL: B1 VL
notes: DVD-Ig; HC S, LC L; variable parts only
B4: DVD333 (bispecific antibody)
VH: B3 VH
VL: B2 VL
notes: DVD-Ig; HC S, LC S; variable parts only
B5: DVD828 (bispecific antibody)
VH: EVQLVQSGGGLVKPGGSLRLSCAASGFTFSSYAMHWVRQAPGKGLEWVAVISYDGSNKYYADSVKGRFTISRDNSKNTLYLQMNSLRAEDTAVYYCARFSGWPNNYYYYGMDVWGQGTTVTVSSASTKGPQVQLQESGPGLVKPSQTLSLTCTVSGYSISSDFAWNWIRQPPGKGLEWMGYISYSGNTRYQPSLKSRITISRDTSKNQFFLKLNSVTAADTATYYCVTAGRGFPYWGQGTLVTVSS
VL: DVVMTQSPLSLPVTPGEPASISCRSSQSLLHSNGFNYVDWYLQKPGQSPHLLIYFGSYRASGVPDRFSGSGSGTDFTLKISRVEAEDVGVYYCMQALQTPPWTFGQGTKVEIRRTVAAPSVFIFPPDIQMTQSPSSMSVSVGDRVTITCHSSQDINSNIGWLQQKPGKSFKGLIYHGTNLDDGVPSRFSGSGSGTDYTLTISSLQPEDFATYYCVQYAQFPWTFGGGTKLEIKR
notes: as for B3
B6: DVD776 (bispecific antibody)
VH: EVQLLESGGGLVQPGGSLRLSCTASGFTFSSYAMNWVRQAPGKGLEWVSAISGSGGTTFYADSVKGRFTISRDNSRTTLYLQMNSLRAEDTAVYYCAKDLGWSDSYYYYYGMDVWGQGTTVTVSSASTKGPSVFPLAPQVQLQESGPGLVKPSQTLSLTCTVSGYSISSDFAWNWIRQPPGKGLEWMGYISYSGNTRYQPSLKSRITISRDTSKNQFFLKLNSVTAADTATYYCVTAGRGFPYWGQGTLVTVSS
VL: DIQMTQFPSSLSASVGDRVTITCRASQGIRNDLGWYQQKPGKAPKRLIYAASRLHRGVPSRFSGSGSGTEFTLTISSLQPEDFATYYCLQHNSYPCSFGQGTKLEIKRTVAAPSVFIFPPDIQMTQSPSSMSVSVGDRVTITCHSSQDINSNIGWLQQKPGKSFKGLIYHGTNLDDGVPSRFSGSGSGTDYTLTISSLQPEDFATYYCVQYAQFPWTFGGGTKLEIKR
notes: as for B1
B7: DVD836 (bispecific antibody)
VH: EVQLLESGGGLVQPGGSLRLSCTASGFTFSSYAMNWVRQAPGKGLEWVSAISGSGGTTFYADSVKGRFTISRDNSRTTLYLQMNSLRAEDTAVYYCAKDLGWSDSYYYYYGMDVWGQGTTVTVSSASTKGPQVQLQESGPGLVKPSQTLSLTCTVSGYSISSDFAWNWIRQPPGKGLEWMGYISYSGNTRYQPSLKSRITISRDTSKNQFFLKLNSVTAADTATYYCVTAGRGFPYWGQGTLVTVSS
VL: B6 VL
notes: as for B3
B8: DVD806 (bispecific antibody)
VH: B6 VH
VL: DIQMTQFPSSLSASVGDRVTITCRASQGIRNDLGWYQQKPGKAPKRLIYAASRLHRGVPSRFSGSGSGTEFTLTISSLQPEDFATYYCLQHNSYPCSFGQGTKLEIKRTVAAPDIQMTQSPSSMSVSVGDRVTITCHSSQDINSNIGWLQQKPGKSFKGLIYHGTNLDDGVPSRFSGSGSGTDYTLTISSLQPEDFATYYCVQYAQFPWTFGGGTKLEIKR
notes: as for B2
B9: DVD334 (bispecific antibody)
VH: B7 VH
VL: B8 VL
notes: as for B4
B10: DVD335 (bispecific antibody)
VH: QVQLQESGPGLVKPSQTLSLTCTVSGYSISSDFAWNWIRQPPGKGLEWMGYISYSGNTRYQPSLKSRITISRDTSKNQFFLKLNSVTAADTATYYCVTAGRGFPYWGQGTLVTVSSASTKGPQVQLVESGGGLVKPGGSLRLSCAASGFTFSDYYMSWIRQAPGKGLEWVSYISSSGSTIYYADSVKGRFTISRDNAKNSLYLQMNSLRAEDTAVYYCARDEYNSGWYVLFDYWGQGTLVTVSS
VL: DIQMTQSPSSMSVSVGDRVTITCHSSQDINSNIGWLQQKPGKSFKGLIYHGTNLDDGVPSRFSGSGSGTDYTLTISSLQPEDFATYYCVQYAQFPWTFGGGTKLEIKRTVAAPDIQMTQSPSSVSASVGDRVTITCRASQGISSWLAWYQQKPGKAPNLLIYEASSLQSGVPSRFGGSGSGTDFTLTISSLQPEDFATYYCQQANGFPWTFGQGTKVEIKR
notes: as for B4
B11: DVD777 (bispecific antibody)
VH: QVQLQESGPGLVKPSQTLSLTCTVSGYSISSDFAWNWIRQPPGKGLEWMGYISYSGNTRYQPSLKSRITISRDTSKNQFFLKLNSVTAADTATYYCVTAGRGFPYWGQGTLVTVSSASTKGPSVFPLAPQVQLVESGGGLVKPGGSLRLSCAASGFTFSDYYMSWIRQAPGKGLEWVSYISSSGSTIYYADSVKGRFTISRDNAKNSLYLQMNSLRAEDTAVYYCARDEYNSGWYVLFDYWGQGTLVTVSS
VL: DIQMTQSPSSMSVSVGDRVTITCHSSQDINSNIGWLQQKPGKSFKGLIYHGTNLDDGVPSRFSGSGSGTDYTLTISSLQPEDFATYYCVQYAQFPWTFGGGTKLEIKRTVAAPSVFIFPPDIQMTQSPSSVSASVGDRVTITCRASQGISSWLAWYQQKPGKAPNLLIYEASSLQSGVPSRFGGSGSGTDFTLTISSLQPEDFATYYCQQANGFPWTFGQGTKVEIKR
notes: as for B1
B12: DVD807 (bispecific antibody)
VH: B11 VH
VL: B10 VL
notes: as for B2
B13: DVD837 (bispecific antibody)
VH: B10 VH
VL: B11 VL
notes: as for B3

For one assay, the target named is T1, IGF1R (UniProt P08069 31-932, limits assumed, biotinylated).
T1 construct: ELISA antigen
The assay can be described thus: direct bind ELISA, C-term VD.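 Also: ELISA with antibody or DVD-Ig preparations applied to target antigen-coated plates for 1 h at room temperature, TMB colour development, absorbance read at 450 nm.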
Consider B1, for which the EC50 was 2.77 nM.
B2 displayed an EC50 of 0.99 nM.
In turn, B3 showed a concentration giving a half-maximal response (EC50) of 3.47 nM.
Molecule B4 had an EC50 of 78.6 nM.

For the next assay, the target named is T2, EGFR (UniProt P00533 25-645, limits assumed, biotinylated).
T2 construct: ELISA antigen; construct not described
Briefly: direct bind ELISA, C-term VD.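 Also: ELISA with antibody or DVD-Ig preparations applied to target antigen-coated plates for 1 h at room temperature, TMB colour development, absorbance read at 450 nm.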
Consider B5, for which the EC50 is 19.8 nM.
The same measure, in the same setting: the same measure for B6: 286 nM; for B7: 56.8 nM.
Take B8: the 50% effective concentration (EC50) was 53.8 nM.
Turning to B9, the 50% effective concentration (EC50) came to 137 nM.

A further assay has as its target T3, HGF (UniProt P14210 32-728, limits assumed, biotinylated).
T3 construct: ELISA antigen
The assay can be described thus: direct bind ELISA, C-term VD.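 Also: ELISA with antibody or DVD-Ig preparations applied to target antigen-coated plates for 1 h at room temperature, TMB colour development, absorbance read at 450 nm.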
In turn, B10 had a concentration for a half-maximal effect (EC50) of 159 nM.
B11 registered an EC50 of 0.96 nM.
Consider B12, for which the EC50 amounted to 9.24 nM.
The same measure, in the same setting: the same measure for B13: 1.29 nM.

The target in a further assay is T1, IGF1R. The assay can be described thus: direct bind ELISA, N-term VD. (An ELISA detects its analyte on a solid surface through an enzyme-linked reagent.)
Molecule B6 yielded a half-maximal effective concentration (EC50) of 0.83 nM.
Molecule B7 registered an EC50 of 0.51 nM.
On to B8, for which it took 0.4 nM to reach a half-maximal effect (EC50).
Molecule B9 registered an EC50 of 0.19 nM.

Another assay concerns the target T2, EGFR. Briefly: direct bind ELISA, N-term VD.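 Also: antibody or DVD-Ig preparations bound to immobilized target antigen on ELISA plates, 1 h at room temperature, TMB detection read as absorbance at 450 nm.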
The molecule B10 returned a concentration for a half-maximal effect (EC50) of 3.77 nM.
Turning to B1, the EC50 worked out at 3.59 nM.
Molecule B2 registered an EC50 of 0.48 nM.
Take B3: the EC50 is 2.42 nM.
Regarding B11, the 50% effective concentration (EC50) was determined as 5.13 nM.
Same read-out and setting: as for B12, the figure is 4.85 nM; as for B13, 4.51 nM; as for B4, 3.55 nM.

Another assay addresses RON (UniProt Q04912 25-571, biotinylated). Briefly: direct bind ELISA, N-term VD.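 Also: antibody or DVD-Ig preparations bound to immobilized target antigen on ELISA plates, 1 h at room temperature, TMB detection read as absorbance at 450 nm.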
B5 came in with a half-maximal effective concentration (EC50) of 0.2 nM.
